Data from article PMC10074858.

Assays:
[1] = molecular target: alpha-fetoprotein receptor (human (endogenous in tumor cell lines)); assay: plate-reader fluorescence of labeled protein bound to and internalized by cells; 0.5 µM F-ACT-101 (Alexa Fluor 647) with tumor cells at 37 °C for 0.5, 2 and 5 h, stopped on ice, cells washed, sonicated with DMSO, fluorescence read; background subtracted; binding/internalization as ng per million cells; n = 3
[2] = molecular target: alpha-fetoprotein receptor (human (endogenous in tumor cell lines)); assay: flow cytometry on cells; COLO-205 or U937 cells, F-ACT-101 (Alexa Fluor 488) at 1, 3, 10, 30 and 100 µg/mL in cold PBS for 1 h on ice; percent of cells positive

Binder | ng F-ACT-101 per million cells (COLO-205, 0.5 h) (ng/million cells) [1] | ng F-ACT-101 per million cells (COLO-205, 2 h) (ng/million cells) [1] | ng F-ACT-101 per million cells (COLO-205, 5 h) (ng/million cells) [1] | ng F-ACT-101 per million cells (H522, 0.5 h) (ng/million cells) [1] | ng F-ACT-101 per million cells (H522, 2 h) (ng/million cells) [1] | ng F-ACT-101 per million cells (H522, 5 h) (ng/million cells) [1] | ng F-ACT-101 per million cells (MCF-7, 0.5 h) (ng/million cells) [1] | ng F-ACT-101 per million cells (MCF-7, 2 h) (ng/million cells) [1] | ng F-ACT-101 per million cells (MCF-7, 5 h) (ng/million cells) [1] | ng F-ACT-101 per million cells (OVCAR-3, 0.5 h) (ng/million cells) [1] | ng F-ACT-101 per million cells (OVCAR-3, 2 h) (ng/million cells) [1] | ng F-ACT-101 per million cells (OVCAR-3, 5 h) (ng/million cells) [1] | ng F-ACT-101 per million cells (SKOV-3, 0.5 h) (ng/million cells) [1] | ng F-ACT-101 per million cells (SKOV-3, 2 h) (ng/million cells) [1] | ng F-ACT-101 per million cells (SKOV-3, 5 h) (ng/million cells) [1] | ng F-ACT-101 per million cells (U937, 0.5 h) (ng/million cells) [1] | ng F-ACT-101 per million cells (U937, 2 h) (ng/million cells) [1] | ng F-ACT-101 per million cells (U937, 5 h) (ng/million cells) [1] | percent of cells positive for binding (COLO-205, at 100 µg/mL) [2] [%] | percent of cells positive for binding (U937, at 100 µg/mL) [2] [%]
Fluorescently labeled ACT-101 (Alexa Fluor 647) (ligand, Alexa Fluor 647 label (protein labeling kit); sites not stated) RTLHRNEYGIASILDSYQCTAEISLADLATIFFAQFVQEATYKEVSKMVKDALTAIEKPTGDEQSSGCLENQLPAFLEELCHEKEILEKYGHSDCCSQSEEGRHNCFLAHKKPTPASIPLFQVPEPVTSCEAYEEDRETFMNKFIYEIARRHPFLYAPTILLWAARYDKIIPSCCKAENAVECFQTKAATVTKELRESSLLNQHACAVMKNFGTRTFQAITVTKLSQKFTKVQFTEIQKLVLDVAHVHEHCCRGDVLDCLQDGEKIMSYICSQQDTLSNKITECCKLTTLERGQCIIHAENDEKPEGLSPNLNRFLGDRDFNQFSSGEKNIFLASFVHEYSRRHPQLAVSVILRVAKGYQELLEKCFQTENPLECQDKGEEELQKYIQESQALAKRSCGLFQKLGEYYLQNAFLVAYTKKAPQLTSSELMAITRKMAATAATCCQLSEDKLLACGEGAADIIIGHLCIRHEMTPVNPGVGQCCTSSYANRRPCFSSLVVDETYVPPAFSDDKFIFHKDLCQAQGVALQTMKQEFLINLVKQKPQITEEQLEAVIADFSGLLEKCCQGQEQEVCFAEEGQKLISKTRAALGV | 6.9 | 33.6 | 75 | 55.6 | 27.1 | 71.3 | 51 | 53.6 | 126 | 67 | 21.2 | 71 | 31.3 | 9.2 | 16 | 29.5 | 67.1 | 84.3 | – | –
Fluorescently labeled ACT-101 (Alexa Fluor 488) (ligand, Alexa Fluor 488 label (microscale protein labeling kit); sites not stated) RTLHRNEYGIASILDSYQCTAEISLADLATIFFAQFVQEATYKEVSKMVKDALTAIEKPTGDEQSSGCLENQLPAFLEELCHEKEILEKYGHSDCCSQSEEGRHNCFLAHKKPTPASIPLFQVPEPVTSCEAYEEDRETFMNKFIYEIARRHPFLYAPTILLWAARYDKIIPSCCKAENAVECFQTKAATVTKELRESSLLNQHACAVMKNFGTRTFQAITVTKLSQKFTKVQFTEIQKLVLDVAHVHEHCCRGDVLDCLQDGEKIMSYICSQQDTLSNKITECCKLTTLERGQCIIHAENDEKPEGLSPNLNRFLGDRDFNQFSSGEKNIFLASFVHEYSRRHPQLAVSVILRVAKGYQELLEKCFQTENPLECQDKGEEELQKYIQESQALAKRSCGLFQKLGEYYLQNAFLVAYTKKAPQLTSSELMAITRKMAATAATCCQLSEDKLLACGEGAADIIIGHLCIRHEMTPVNPGVGQCCTSSYANRRPCFSSLVVDETYVPPAFSDDKFIFHKDLCQAQGVALQTMKQEFLINLVKQKPQITEEQLEAVIADFSGLLEKCCQGQEQEVCFAEEGQKLISKTRAALGV | – | – | – | – | – | – | – | – | – | – | – | – | – | – | – | – | – | – | 90 | 90
